Earlier results as cited in paper PMC10178616.

Target: AGR2 (Homo sapiens) (UniProt O95994)

Kd: 8.83 µM
Substance: AGR2 (from UniProt O95994)
